Reference: patent US20150299296A1 (Chugai, published 2015)

T1: human FcγRIIb extracellular domain with C-terminal His tag (human, UniProt P31994 43-217)
T1 construct: extracellular domain; For crystals it was expressed with kifunensine and trimmed with Endo F1; also called FcgRIIb; FcγRIIb extracellular region
T1 sequence (looked up): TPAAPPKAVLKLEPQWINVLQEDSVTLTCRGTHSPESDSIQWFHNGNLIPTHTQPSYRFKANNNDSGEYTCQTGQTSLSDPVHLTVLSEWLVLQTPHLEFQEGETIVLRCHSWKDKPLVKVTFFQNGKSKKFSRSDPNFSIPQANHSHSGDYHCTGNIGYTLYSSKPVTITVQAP


Molecular target: T1, human FcγRIIb extracellular domain with …
Assay: SPR (Biacore): amount of FcγRIIb bound per captured antibody, relative to the pre-altered antibody GpH7-B3/GpL16-k0 = 100 (Reference Examples 2, 3 and 6)

binding result | Binder
binds | G237A (antibody, human IgG1, kappa, also called GpH7-B3 with G237A / GpL16-k0 (no P238D)) heavy chain: not shown light chain: DIVMTQSPLSLPVTPGEPASISCQASESLVHSNRNTYLHWYLQKPGQSPQLLIYKVSNRFSGVPDRFSGSGSGTDFTLKISRVEAEDVGVYYCSQNTHVPPTFGQGTKVEIERTVAAPSVFIFPPSDEQLKSGTASVVCLLNNFYPREAKVQWKVDNALQSGNSQESVTEQDSKDSTYSLSSTLTLSKADYEKHKVYACEVTHQGLSSPVTKSFNRGEC
binds | L234W (antibody, human IgG1, kappa, also called GpH7-B3 with L234W / GpL16-k0 (no P238D)) heavy chain: not shown light chain: DIVMTQSPLSLPVTPGEPASISCQASESLVHSNRNTYLHWYLQKPGQSPQLLIYKVSNRFSGVPDRFSGSGSGTDFTLKISRVEAEDVGVYYCSQNTHVPPTFGQGTKVEIERTVAAPSVFIFPPSDEQLKSGTASVVCLLNNFYPREAKVQWKVDNALQSGNSQESVTEQDSKDSTYSLSSTLTLSKADYEKHKVYACEVTHQGLSSPVTKSFNRGEC
binds | G237L (antibody, human IgG1, kappa, also called GpH7-B3 with G237L / GpL16-k0 (no P238D)) heavy chain: not shown light chain: DIVMTQSPLSLPVTPGEPASISCQASESLVHSNRNTYLHWYLQKPGQSPQLLIYKVSNRFSGVPDRFSGSGSGTDFTLKISRVEAEDVGVYYCSQNTHVPPTFGQGTKVEIERTVAAPSVFIFPPSDEQLKSGTASVVCLLNNFYPREAKVQWKVDNALQSGNSQESVTEQDSKDSTYSLSSTLTLSKADYEKHKVYACEVTHQGLSSPVTKSFNRGEC
binds | L234Y (antibody, human IgG1, kappa, also called GpH7-B3 with L234Y / GpL16-k0 (no P238D)) heavy chain: not shown light chain: DIVMTQSPLSLPVTPGEPASISCQASESLVHSNRNTYLHWYLQKPGQSPQLLIYKVSNRFSGVPDRFSGSGSGTDFTLKISRVEAEDVGVYYCSQNTHVPPTFGQGTKVEIERTVAAPSVFIFPPSDEQLKSGTASVVCLLNNFYPREAKVQWKVDNALQSGNSQESVTEQDSKDSTYSLSSTLTLSKADYEKHKVYACEVTHQGLSSPVTKSFNRGEC
binds | G237D (antibody, human IgG1, kappa, also called GpH7-B3 with G237D / GpL16-k0 (no P238D)) heavy chain: not shown light chain: DIVMTQSPLSLPVTPGEPASISCQASESLVHSNRNTYLHWYLQKPGQSPQLLIYKVSNRFSGVPDRFSGSGSGTDFTLKISRVEAEDVGVYYCSQNTHVPPTFGQGTKVEIERTVAAPSVFIFPPSDEQLKSGTASVVCLLNNFYPREAKVQWKVDNALQSGNSQESVTEQDSKDSTYSLSSTLTLSKADYEKHKVYACEVTHQGLSSPVTKSFNRGEC
binds | G237F (antibody, human IgG1, kappa, also called GpH7-B3 with G237F / GpL16-k0 (no P238D)) heavy chain: not shown light chain: DIVMTQSPLSLPVTPGEPASISCQASESLVHSNRNTYLHWYLQKPGQSPQLLIYKVSNRFSGVPDRFSGSGSGTDFTLKISRVEAEDVGVYYCSQNTHVPPTFGQGTKVEIERTVAAPSVFIFPPSDEQLKSGTASVVCLLNNFYPREAKVQWKVDNALQSGNSQESVTEQDSKDSTYSLSSTLTLSKADYEKHKVYACEVTHQGLSSPVTKSFNRGEC
binds | G237M (antibody, human IgG1, kappa, also called GpH7-B3 with G237M / GpL16-k0 (no P238D)) heavy chain: not shown light chain: DIVMTQSPLSLPVTPGEPASISCQASESLVHSNRNTYLHWYLQKPGQSPQLLIYKVSNRFSGVPDRFSGSGSGTDFTLKISRVEAEDVGVYYCSQNTHVPPTFGQGTKVEIERTVAAPSVFIFPPSDEQLKSGTASVVCLLNNFYPREAKVQWKVDNALQSGNSQESVTEQDSKDSTYSLSSTLTLSKADYEKHKVYACEVTHQGLSSPVTKSFNRGEC
binds | G237Y (antibody, human IgG1, kappa, also called GpH7-B3 with G237Y / GpL16-k0 (no P238D)) heavy chain: not shown light chain: DIVMTQSPLSLPVTPGEPASISCQASESLVHSNRNTYLHWYLQKPGQSPQLLIYKVSNRFSGVPDRFSGSGSGTDFTLKISRVEAEDVGVYYCSQNTHVPPTFGQGTKVEIERTVAAPSVFIFPPSDEQLKSGTASVVCLLNNFYPREAKVQWKVDNALQSGNSQESVTEQDSKDSTYSLSSTLTLSKADYEKHKVYACEVTHQGLSSPVTKSFNRGEC
binds | G237E (antibody, human IgG1, kappa, also called GpH7-B3 with G237E / GpL16-k0 (no P238D)) heavy chain: not shown light chain: DIVMTQSPLSLPVTPGEPASISCQASESLVHSNRNTYLHWYLQKPGQSPQLLIYKVSNRFSGVPDRFSGSGSGTDFTLKISRVEAEDVGVYYCSQNTHVPPTFGQGTKVEIERTVAAPSVFIFPPSDEQLKSGTASVVCLLNNFYPREAKVQWKVDNALQSGNSQESVTEQDSKDSTYSLSSTLTLSKADYEKHKVYACEVTHQGLSSPVTKSFNRGEC
binds | S239D (antibody, human IgG1, kappa, also called GpH7-B3 with S239D / GpL16-k0 (no P238D)) heavy chain: not shown light chain: DIVMTQSPLSLPVTPGEPASISCQASESLVHSNRNTYLHWYLQKPGQSPQLLIYKVSNRFSGVPDRFSGSGSGTDFTLKISRVEAEDVGVYYCSQNTHVPPTFGQGTKVEIERTVAAPSVFIFPPSDEQLKSGTASVVCLLNNFYPREAKVQWKVDNALQSGNSQESVTEQDSKDSTYSLSSTLTLSKADYEKHKVYACEVTHQGLSSPVTKSFNRGEC

Molecular target: T1, human FcγRIIb extracellular domain with …
Assay: SPR KD ratio

fold binding against the native form | fold binding (IL6R-B3/IL6R-L = 1) | Binder
131 fold | – | IL6R-BP492/IL6R-L (antibody, human IgG1, kappa) heavy: QVQLQESGPGLVKPSETLSLTCAVSGHSISHDHAWSWVRQPPGEGLEWIGFISYSGITNYNPSLQGRVTISRDNSKNTLYLQMNSLRAEDTAVYYCARSLARTTAMDYWGEGTLVTVSSASTKGPSVFPLAPSSKSTSGGTAALGCLVKDYFPEPVTVSWNSGALTSGVHTFPAVLQSSGLYSLSSVVTVPSSSLGTQTYICNVNHKPSNTKVDKKVEPKSCDKTHTCPPCPAPELLGGDSVFLFPPKPKDTLMISRTPEVTCVVIDVAEEDGEVKFNWYVDGVEVHNAKTKPREEQYNSTYRVVSVLTVLHQDWLNGKEYKCKVSNKALPAPIEKTISKAKGQPREPQVYTLPPSRDELTKNQVSLTCLVKGFYPSDIAVEWESNGQPENNYKTTPPVLDSDGSFFLYSKLTVDKSRWQQGNVFSCSVMHEALHNHYTQESLSLSP light: not shown
– | 3100 times | IL6R-BP489/IL6R-L (antibody, human IgG1, kappa) heavy: QVQLQESGPGLVKPSETLSLTCAVSGHSISHDHAWSWVRQPPGEGLEWIGFISYSGITNYNPSLQGRVTISRDNSKNTLYLQMNSLRAEDTAVYYCARSLARTTAMDYWGEGTLVTVSSASTKGPSVFPLAPSSKSTSGGTAALGCLVKDYFPEPVTVSWNSGALTSGVHTFPAVLQSSGLYSLSSVVTVPSSSLGTQTYICNVNHKPSNTKVDKKVEPKSCDKTHTCPPCPAPDLLGDDSVFLFPPKPKDTLMISRTPEVTCVVIDVAEEDGEVKFNWYVDGVEVHNAKTKPREEQDNSTYRVVSVLTVLHQDWLNGKEYKCKVSNKALPRPIEKTISKAKGQPREPQVYTLPPSRDELTKNQVSLTCLVKGFYPSDIAVEWESNGQPENNYKTTPMVLDSDGSFFLYSKLTVDKSRWQQGNVFSCSVMHEALHNHYTQESLSLSP light: not shown
– | 321 times | IL6R-BP495/IL6R-L (antibody, human IgG1, kappa) heavy: QVQLQESGPGLVKPSETLSLTCAVSGHSISHDHAWSWVRQPPGEGLEWIGFISYSGITNYNPSLQGRVTISRDNSKNTLYLQMNSLRAEDTAVYYCARSLARTTAMDYWGEGTLVTVSSASTKGPSVFPLAPSSKSTSGGTAALGCLVKDYFPEPVTVSWNSGALTSGVHTFPAVLQSSGLYSLSSVVTVPSSSLGTQTYICNVNHKPSNTKVDKKVEPKSCDKTHTCPPCPAPELLGDDSVFLFPPKPKDTLMISRTPEVTCVVVDVGEEDGEVKFNWYVDGVEVHNAKTKPREEQDNSTYRVVSVLTVLHQDWLNGKEYKCKVSNKALPRPIEKTISKAKGQPREPQVYTLPPSRDELTKNQVSLTCLVKGFYPSDIAVEWESNGQPENNYKTTPPVLDSDGSFFLYSKLTVDKSRWQQGNVFSCSVMHEALHNHYTQESLSLSP light: not shown
211 fold | – | IL6R-BP568/IL6R-L (antibody) heavy: QVQLQESGPGLVKPSETLSLTCAVSGHSISHDHAWSWVRQPPGEGLEWIGFISYSGITNYNPSLQGRVTISRDNSKNTLYLQMNSLRAEDTAVYYCARSLARTTAMDYWGEGTLVTVSSASTKGPSVFPLAPSSKSTSGGTAALGCLVKDYFPEPVTVSWNSGALTSGVHTFPAVLQSSGLYSLSSVVTVPSSSLGTQTYICNVNHKPSNTKVDKKVEPKSCDKTHTCPPCPAPDLLGGDSVFLFPPKPKDTLMISRTPEVTCVVIDVAEEDGEVKFNWYVDGVEVHNAKTKPREEQYNSTYRVVSVLTVLHQDWLNGKEYKCKVSNKALPAPIEKTISKAKGQPREPQVYTLPPSRDELTKNQVSLTCLVKGFYPSDIAVEWESNGQPENNYKTTPPVLDSDGSFFLYSKLTVDKSRWQQGNVFSCSVMHEALHNHYTQESLSLSP light: not shown
147 fold | – | IL6R-BP493/IL6R-L (antibody, human IgG1, kappa) heavy: QVQLQESGPGLVKPSETLSLTCAVSGHSISHDHAWSWVRQPPGEGLEWIGFISYSGITNYNPSLQGRVTISRDNSKNTLYLQMNSLRAEDTAVYYCARSLARTTAMDYWGEGTLVTVSSASTKGPSVFPLAPSSKSTSGGTAALGCLVKDYFPEPVTVSWNSGALTSGVHTFPAVLQSSGLYSLSSVVTVPSSSLGTQTYICNVNHKPSNTKVDKKVEPKSCDKTHTCPPCPAPELLGGDSVFLFPPKPKDTLMISRTPEVTCVVIDVAEEDGEVKFNWYVDGVEVHNAKTKPREEQDNSTYRVVSVLTVLHQDWLNGKEYKCKVSNKALPAPIEKTISKAKGQPREPQVYTLPPSRDELTKNQVSLTCLVKGFYPSDIAVEWESNGQPENNYKTTPPVLDSDGSFFLYSKLTVDKSRWQQGNVFSCSVMHEALHNHYTQESLSLSP light: not shown

Molecular target: T2, human FcγRIa extracellular domain with C-terminal His tag (human, UniProt P12314 16-292)
T2 construct: Whole entry named; also called FcgRIa; FcgIa
T2 sequence (P12314 16-292): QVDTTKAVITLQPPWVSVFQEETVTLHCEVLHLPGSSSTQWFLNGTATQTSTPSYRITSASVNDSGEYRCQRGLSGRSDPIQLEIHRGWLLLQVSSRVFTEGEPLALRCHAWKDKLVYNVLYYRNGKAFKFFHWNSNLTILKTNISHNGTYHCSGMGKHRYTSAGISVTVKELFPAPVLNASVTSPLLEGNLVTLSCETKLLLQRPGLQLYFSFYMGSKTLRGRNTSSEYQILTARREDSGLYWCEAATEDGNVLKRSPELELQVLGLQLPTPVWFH
Assay: SPR

binding result | Binder
binds | IL6R-BP436/IL6R-L (antibody, human IgG1, kappa) heavy: QVQLQESGPGLVKPSETLSLTCAVSGHSISHDHAWSWVRQPPGEGLEWIGFISYSGITNYNPSLQGRVTISRDNSKNTLYLQMNSLRAEDTAVYYCARSLARTTAMDYWGEGTLVTVSSASTKGPSVFPLAPSSKSTSGGTAALGCLVKDYFPEPVTVSWNSGALTSGVHTFPAVLQSSGLYSLSSVVTVPSSSLGTQTYICNVNHKPSNTKVDKKVEPKSCDKTHTCPPCPAPDLLGDDSVFLFPPKPKDTLMISRTPEVTCVVVDVAEEDGEVKFNWYVDGVEVHNAKTKPREEQDNSTYRVVSVLTVLHQDWLNGKEYKCKVSNKALPRPTEKTISKAKGQPREPQVYTLPPSRDELTKNQVSLTCLVKGFYPSDIAVEWESNGQPENNYKTTPPVLDSDGSFFLYSKLTVDKSRWQQGNVFSCSVMHEALHNHYTQESLSLSP light: not shown

Molecular target: T1, human FcγRIIb extracellular domain with …
Assay: SPR

binding result | Binder
binds | IL6R-BP436/IL6R-L (antibody, human IgG1, kappa) heavy: QVQLQESGPGLVKPSETLSLTCAVSGHSISHDHAWSWVRQPPGEGLEWIGFISYSGITNYNPSLQGRVTISRDNSKNTLYLQMNSLRAEDTAVYYCARSLARTTAMDYWGEGTLVTVSSASTKGPSVFPLAPSSKSTSGGTAALGCLVKDYFPEPVTVSWNSGALTSGVHTFPAVLQSSGLYSLSSVVTVPSSSLGTQTYICNVNHKPSNTKVDKKVEPKSCDKTHTCPPCPAPDLLGDDSVFLFPPKPKDTLMISRTPEVTCVVVDVAEEDGEVKFNWYVDGVEVHNAKTKPREEQDNSTYRVVSVLTVLHQDWLNGKEYKCKVSNKALPRPTEKTISKAKGQPREPQVYTLPPSRDELTKNQVSLTCLVKGFYPSDIAVEWESNGQPENNYKTTPPVLDSDGSFFLYSKLTVDKSRWQQGNVFSCSVMHEALHNHYTQESLSLSP light: not shown
